# In article PMC12173945, “Import mechanism of peroxisomal proteins with an N-terminal signal sequence” (Nature Cell Biology, 2025):
# T1: yeast PEX7 (yeast (S. cerevisiae), UniProt P39108 1-375)
# T1 construct: PEX7, yeast (S. cerevisiae); also called purified recombinant yeast PEX7; not shown: GST, N-terminal, cleaved
# T1 sequence (looked up): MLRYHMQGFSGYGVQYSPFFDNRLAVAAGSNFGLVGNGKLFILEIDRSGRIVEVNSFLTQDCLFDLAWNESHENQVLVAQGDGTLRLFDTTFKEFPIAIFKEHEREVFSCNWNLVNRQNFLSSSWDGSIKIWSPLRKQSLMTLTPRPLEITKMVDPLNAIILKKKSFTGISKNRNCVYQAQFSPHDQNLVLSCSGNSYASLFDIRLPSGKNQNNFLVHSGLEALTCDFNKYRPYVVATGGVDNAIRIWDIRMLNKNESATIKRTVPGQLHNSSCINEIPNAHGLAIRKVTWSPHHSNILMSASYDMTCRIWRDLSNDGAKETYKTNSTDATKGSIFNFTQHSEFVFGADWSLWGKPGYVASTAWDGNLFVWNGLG
# T2: yeast PEX7 fused at the C terminus to GFP (PEX7–GFP) (yeast (S. cerevisiae), UniProt P39108 1-375)
# T2 construct: PEX7, yeast (S. cerevisiae); not shown: GST, N-terminal, cleaved; GFP, C-terminal, kept
# T2 sequence (looked up): T1 sequence (looked up)
# B1: PEX7–FLAG: PEX7 with a short SG linker and a FLAG epitope tag at the C terminus (protein, UniProt O00628 1-323, looked up)
# Peroxisomal targeting signal …: MSAVCGGAARMLRTPGRHGYAAEFSPYLPGRLACATAQHYGIAGCGTLLILDPDEAGLRLFRSFDWNDGLFDVTWSENNEHVLITCSGDGSLQLWDTAKAAGPLQVYKEHAQEVYSVDWSQTRGEQLVVSGSWDQTVKLWDPTVGKSLCTFRGHESIIYSTIWSPHIPGCFASASGDQTLRIWDVKAAGVRIVIPAHQAEILSCDWCKYNENLLVTGAVDCSLRGWDLRNVRQPVFELLGHTYAIRRVKFSPFHASVLASCSYDFTVRFWNFSKPDSLLETVEHHTEFTCGLDFSLQSPTQVADCSWDETIKIYDPACLTIPA
# modifications: C-terminal SG linker and FLAG tag
# B2: GST-tagged wild-type yeast PEX39 (GST–PEX39) (natural protein, UniProt P47087 1-132, looked up)
# chain: MAAGGELSYEELLDHILNNKPIPNIVEVPNVTLDEGLASTPSLRPRPRPWEGQLQHQSHQGSLDKPNISLDIDQESLEGMTSLTRLSECYDIQSKLQINDSDNDNDDNNNDNNKGDGNDDDNNTVTANPTAR
# notes: PEX39, yeast; also called WT; PEX39-coated beads; source: E. coli BL21 Rosetta 2(DE3), purified, GST-tagged; not shown: GST, N-terminal, kept
# B3: KPWE peptide (residues 2–20 of S. cerevisiae PEX13 with an additional N-terminal cysteine) (peptide)
# peptide: CSSTAVPRPKPWETSASLEE
# notes: additional N-terminal cysteine for coupling to thiol-reactive agarose beads; PEX13, S. cerevisiae, residues 2–20; also called peptide comprising the KPWE motif of yeast PEX13; source: synthetic peptide (Genscript)
# Legend:
# yeast PEX7 [1] = assay: Bead-binding assay: PEX5 variants, PEX7 and PTS2 cargo (Extended Data Fig. 2a,c, 6b); design: species or system yeast (S. cerevisiae); settings: 1 µM PEX7–GFP
# From the text: Cysteine-containing peptides were covalently conjugated to thiol-reactive SulfoLink coupling resin (Thermo Fisher, catalogue number 20401) according to the manufacturer’s instructions. The prepared beads were then mixed with Assay Buffer containing the fluorescently labelled protein as well as additional components indicated in the text, and the resulting bead suspensions were transferred to a 384-well glass-bottomed plate (Cellvis, P384-1.5H-N). GST-fusion proteins were instead mixed with glutathione agarose 4B (Prometheus, 20-543) in Assay Buffer containing the fluorescently labelled protein and additional components indicated in the text; the resulting bead suspensions were then transferred to a glass-bottomed plate as above. The plates were incubated at RT for the durations specified in the text and directly imaged on the spinning-disk confocal platform described earlier for peroxisomal import reactions in Xenopus egg extract. Note that imaging the beads directly in the binding reaction preserves the equilibrium and thereby allows even weak interactions to be detected. Fluorescence was collected through a Nikon ×10 0.45 NA Plan Apo air objective, and images were acquired using the Nikon NIS-Elements software and a 16-bit digitizer without binning. Imaging parameters were configured to maximize the SNR while avoiding saturation. […]
# [2] = test system: PEX7–FLAG in peroxisome-containing membrane fraction; assay: Cell fractionation and FLAG immunoprecipitation / immunoblot of PEX7–FLAG and PEX39–FLAG; assay type: cell-based, S. cerevisiae; settings: PEX13 lacking the KPWE motif; yeast in oleic acid
# Method: Samples in Laemmli buffer (50 mM Tris–HCl pH 6.8 at RT, 10% vol/vol glycerol, 2% wt/vol SDS, 0.01% bromophenol blue and 700 mM β-mercaptoethanol) were heated for 5 min at 95 °C and then electrophoretically resolved under denaturing conditions on 4–20% TGX precast polyacrylamide gels (Bio-Rad, catalogue number 5671095). For immunoblotting, samples were transferred from the gels to Immun-Blot PVDF membranes (Bio-Rad, catalogue number 13709A06) for 12 h at 25 V and RT in 25 mM Tris, 192 mM glycine and 10% vol/vol methanol. The membranes were blotted in 20 mM Tris–HCl pH 7.5 at RT, 150 mM NaCl, 0.01% vol/vol Tween 20 and 3% wt/vol fat-free milk solids (Apex, catalogue number 20241) using antibodies to the FLAG epitope (Sigma, F7425) and compatible horseradish peroxidase-conjugated secondary antibodies (Cytiva, NA934). The blots were developed by chemiluminescence (Perkin Elmer, NEL103001EA) and scanned on an Amersham ImageQuant 800 imaging system. For staining with Coomassie blue, gels were fixed in 50% vol/vol methanol and 10% vol/vol acetic acid for 30 min at RT, incubated for 30 min in 50% vol/vol methanol, 10% vol/vol acetic acid and 0.001% wt/vol Coomassie brilliant blue R-250 (Bio-Rad), and destained overnight in 10% vol/vol acetic acid before washing into water. The stained gels were digitized on an Epson Perfection V700 scanner using the Epson Scan 2 software. […]
# [3] = test system: S. cerevisiae cells expressing RFP–FOX2 and POT1–GFP; assay: Peroxisomal protein import assay in S. cerevisiae; assay type: cell-based; settings: yeast expressing PTS1 and PTS2 matrix proteins
# Method: Peroxisome biogenesis was induced in S. cerevisiae using an established procedure. Briefly, cells were subcultured twice in YPD medium to mid-log phase (optical density at 600 nm (OD600) ≈ 2), harvested through centrifugation at 2,000g and 30 °C for 10 min, sterilely resuspended to an OD600 of 0.5 in YPGO medium (1% wt/vol yeast extract, 2% wt/vol peptone, 2% vol/vol glycerol, 0.1% wt/vol oleic acid and 0.25% vol/vol Tween 40) and cultured for an additional 16 h at 30 °C. For experiments involving PEX7 riboswitch constructs, cultures in YPGO were supplemented with 250 µM tetracycline (Millipore Sigma, T7660) as described previously.
# S. cerevisiae cells expressing RFP–FOX2 and POT1–GFP (MSB-462) were induced to form peroxisomes as described earlier. […]
# The cells were imaged on a spinning-disk confocal platform consisting of a Nikon Eclipse Ti inverted microscope, a Yokagawa CSU-X1 spinning-disk confocal scanner, a Hamamatsu ORCA-Fusion BT sCMOS camera and a Prior Proscan II motorized stage. […] Fluorescence was collected using a red-emission ET605/52 m (605 ± 26 nm) or a green-emission ET525/50 m (525 ± 25 nm) single-band bandpass filter (Chroma), respectively, through either a Nikon ×100 1.45 numerical aperture (NA) Plan Apo Lambda or Nikon ×40 0.95 NA Plan Apo Lambda air objective. […]
# yeast PEX7 [4] = biological target: T1, yeast PEX7; assay: pull-down; quantitative: glutathione agarose with 1 µM yeast PEX7 and varying concentrations of GST-tagged PEX39 variants, Assay Buffer, 25 °C, 1 h; beads sedimented, PEX7 left in the supernatant quantified by SDS–PAGE and Coomassie; observed binding constants (Kobs); settings: both partners purified
# [5] = biological target: T2, yeast PEX7 fused at the C terminus to …; assay: bead-binding assay (fluorescence on beads by spinning-disk confocal microscopy); GST-tagged protein on glutathione beads; GFP-fused partner in solution (1 µM each in Extended Data Fig. 9a); 1 h, RT; settings: both partners purified
# [6] = biological target: T2, yeast PEX7 fused at the C terminus to …; assay: bead-binding assay (fluorescence on beads by spinning-disk confocal microscopy); peptide or YG-domain polypeptide conjugated through a cysteine to thiol-reactive beads; PEX7–GFP or GFP alone in Assay Buffer (25 mM HEPES-NaOH pH 7.8, 150 mM NaCl, 1 mM TCEP), RT, 1 h (Fig. 3b); beads imaged directly in the binding reaction; settings: both partners purified
# yeast PEX7 [7] = biological target: T1, yeast PEX7; assay: pull-down; competition: glutathione beads with yeast PEX7 and GST-tagged PEX39 ∆APH (each 1 µM), 30 min at 25 °C, then varying concentrations of peptide for 1 h; beads sedimented, supernatant on SDS–PAGE with Coomassie; competitive-binding isotherm, observed binding constants (Kobs); settings: both partners purified
molecule,measurement,setting,value
SQRLQSIKDHLVESRS [PTS2 peptide],Recruitment of PEX7–GFP to PEX5-21-coated beads,yeast PEX7 [1],could recruit PEX7–GFP only in the presence of the PTS2 peptide
B1,Enrichment in the membrane fraction,[2],considerably enriched in the membrane fraction in the absence of the KPWE motif
same,PEX7–FLAG function in protein import,[3],fully functional
B2,binding result,yeast PEX7 [4],binds
same,binding result,[5],binds
B3,binding result,[6],binds
same,binding result,yeast PEX7 [7],binds
